The values that follow come from the supplement of paper PMC5998384.

Data set [1] concerns HeLa Kyoto. The data set can be described thus: solubility change mitosis vs G1/S (difference of NP-40 vs SDS log2 ratios) (log2 ratio difference); higher = more soluble in mitosis.
In data set [2] the test system is HeLa Kyoto. In words: melting temperature (median over replicates), in situ; higher = more thermally stable.
Data set [3] has as its system HeLa Kyoto. The data set can be described thus: solubility in G1/S (NP-40 vs SDS abundance) (log2 ratio); higher = more soluble. The note with it: cell cycle stage: G1/S.
Data set [4] has as its system HeLa Kyoto. The data set can be described thus: thermal stability score vs G1/S (z-score of summed log2 fold changes over temperatures); higher = more thermally stable than in G1/S.
[5] abbreviates: cell cycle stage: early G1 (4.5 h after nocodazole release).
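For melting temperature (median over replicates), in situ in this document: HeLa Kyoto cells synchronized by double thymidine or nocodazole block, proteins quantified by TMT10plex mass spectrometry, three independent biological replicates.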
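For solubility change mitosis vs G1/S (difference of NP-40 vs SDS log2 ratios) in this document: synchronized HeLa Kyoto cells (double thymidine block for G1/S, nocodazole release for mitosis), protein amounts in NP-40 versus SDS lysates quantified by mass spectrometry, three biological replicates.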
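For solubility in G1/S (NP-40 vs SDS abundance) in this document: HeLa Kyoto cells arrested at G1/S by double thymidine block, proteins quantified by TMT10plex mass spectrometry in mild NP-40 versus SDS extracts, three biological replicates.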
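For thermal stability score vs G1/S (z-score of summed log2 fold changes over temperatures) in this document: synchronized HeLa Kyoto cells, proteins quantified by TMT10plex mass spectrometry, three biological replicates, mitosis taken 0.5 h after nocodazole release, G1/S directly after double thymidine block.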

In the case of “MPSPRPVLLRGARAALLLLLPPRLLARPSLLLRRSLSAASCPPISLPAAASRSSMDGAGAEEVLAPLRLAVRQQGDLVRKLKEDKAPQVDVDKAVAELKARKRVLEAKELALQPKDDIVDRAKMEDTLKRRFFYDQAFAIYGGVSGLYDFGPVGCALKNNIIQTWRQHFIQEEQILEIDCTMLTPEPVLKTSGHVDKFADFMVKDVKNGECFRADHLLKAHLQKLMSDKKCSVEKKSEMESVLAQLDNYGQQELADLFVNYNVKSPITGNDLSPPVSFNLMFKTFIGPGGNMPGYLRPETAQGIFLNFKRLLEFNQGKLPFAAAQIGNSFRNEISPRSGLIRVREFTMAEIEHFVDPSEKDHPKFQNVADLHLYLYSAKAQVSGQSARKMRLGDAVEQGVINNTVLGYFIGRIYLYLTKVGISPDKLRFRQHMENEMAHYACDCWDAESKTSYGWIEIVGCADRSCYDLSCHARATKVPLVAEKPLKEPKTVNVVQFEPSKGAIGKAYKKDAKLVMEYLAICDECYITEMEMLLNEKGEFTIETEGKTFQLTKDMINVKRFQKTLYVEEVVPNVIEPSFGLGRIMYTVFEHTFHVREGDEQRTFFSFPAVVAPFKCSVLPLSQNQEFMPFVKELSEALTRHGVSHKVDDSSGSIGRRYARTDEIGVAFGVTIDFDTVNKTPHTATLRDRDSMRQIRAEISELPSIVQDLANGNITWADVEARYPLFEGQETGKKETIEE [GARS]”, the “solubility change mitosis (log2)” value in data set [1] was -0.136. Further, the results for the melting temperature in data set [2] (cell cycle stage: G1/S) and in data set [2] (cell cycle stage: mitosis) were 59.4 °C and 59.5 °C, respectively. Moreover, in data set [3], the “solubility in G1/S (log2)” value came out at 0.0194. Moreover, the figures for the thermal stability score in data set [4] (setting [5]) and in data set [4] (cell cycle stage: mitosis) were -2.91 and -2.03, respectively.
Consider “MPSTDLLMLKAFEPYLEILEVYSTKAKNYVNGHCTKYEPWQLIAWSVVWTLLIVWGYEFVFQPESLWSRFKKKCFKLTRKMPIIGRKIQDKLNKTKDDISKNMSFLKVDKEYVKALPSQGLSSSAVLEKLKEYSSMDAFWQEGRASGTVYSGEEKLTELLVKAYGDFAWSNPLHPDIFPGLRKIEAEIVRIACSLFNGGPDSCGCVTSGGTESILMACKAYRDLAFEKGIKTPEIVAPQSAHAAFNKAASYFGMKIVRVPLTKMMEVDVRAMRRAISRNTAMLVCSTPQFPHGVIDPVPEVAKLAVKYKIPLHVDACLGGFLIVFMEKAGYPLEHPFDFRVKGVTSISADTHKYGYAPKGSSLVLYSDKKYRNYQFFVDTDWQGGIYASPTIAGSRPGGISAACWAALMHFGENGYVEATKQIIKTARFLKSELENIKGIFVFGNPQLSVIALGSRDFDIYRLSNLMTAKGWNLNQLQFPPSIHFCITLLHARKRVAIQFLKDIRESVTQIMKNPKAKTTGMGAIYGMAQTTVDRNMVAELSSVFLDSLYSTDTVTQGSQMNGSPKPH [SGPL1]”, for which the “solubility change mitosis (log2)” value in data set [1] is -0.101. Further, the melting temperature amounted to 53.3 °C in data set [2] (cell cycle stage: G1/S) and 54.3 °C in data set [2] (cell cycle stage: mitosis). The “solubility in G1/S (log2)” value in data set [3] was -0.0885. The results for the thermal stability score in data set [4] (setting [5]) and in data set [4] (cell cycle stage: mitosis) were -0.294 and 0.467, respectively.
For the sequence “MPVAVGPYGQSQPSCFDRVKMGFVMGCAVGMAAGALFGTFSCLRIGMRGRELMGGIGKTMMQSGGTFGTFMAIGMGIRC [ROMO1]”, in data set [1], the “solubility change mitosis (log2)” value was 0.0021. In addition, the melting temperature in data set [2] (cell cycle stage: G1/S) was found to be 54.5 °C; in data set [2] (cell cycle stage: mitosis), 54.9 °C. The “solubility in G1/S (log2)” value in data set [3] is -0.104. In addition, the thermal stability score in data set [4] (setting [5]) is -0.746; in data set [4] (cell cycle stage: mitosis), -1.2.
Take “MPVFHTRTIESILEPVAQQISHLVIMHEEGEVDGKAIPDLTAPVAAVQAAVSNLVRVGKETVQTTEDQILKRDMPPAFIKVENACTKLVQAAQMLQSDPYSVPARDYLIDGSRGILSGTSDLLLTFDEAEVRKIIRVCKGILEYLTVAEVVETMEDLVTYTKNLGPGMTKMAKMIDERQQELTHQEHRVMLVNSMNTVKELLPVLISAMKIFVTTKNSKNQGIEEALKNRNFTVEKMSAEINEIIRVLQLTSWDEDAWASKDTEAMKRALASIDSKLNQAKGWLRDPSASPGDAGEQAIRQILDEAGKVGELCAGKERREILGTCKMLGQMTDQVADLRARGQGSSPVAMQKAQQVSQGLDVLTAKVENAARKLEAMTNSKQSIAKKIDAAQNWLADPNGGPEGEEQIRGALAEARKIAELCDDPKERDDILRSLGEISALTSKLADLRRQGKGDSPEARALAKQVATALQNLQTKTNRAVANSRPAKAAVHLEGKIEQAQRWIDNPTVDDRGVGQAAIRGLVAEGHRLANVMMGPYRQDLLAKCDRVDQLTAQLADLAARGEGESPQARALASQLQDSLKDLKARMQEAMTQEVSDVFSDTTTPIKLLAVAATAPPDAPNREEVFDERAANFENHSGKLGATAEKAAAVGTANKSTVEGIQASVKTARELTPQVVSAARILLRNPGNQAAYEHFETMKNQWIDNVEKMTGLVDEAIDTKSLLDASEEAIKKDLDKCKVAMANIQPQMLVAGATSIARRANRILLVAKREVENSEDPKFREAVKAASDELSKTISPMVMDAKAVAGNISDPGLQKSFLDSGYRILGAVAKVREAFQPQEPDFPPPPPDLEQLRLTDELAPPKPPLPEGEVPPPRPPPPEEKDEEFPEQKAGEVINQPMMMAARQLHDEARKWSSKPGIPAAEVGIGVVAEADAADAAGFPVPPDMEDDYEPELLLMPSNQPVNQPILAAAQSLHREATKWSSKGNDIIAAAKRMALLMAEMSRLVRGGSGTKRALIQCAKDIAKASDEVTRLAKEVAKQCTDKRIRTNLLQVCERIPTISTQLKILSTVKATMLGRTNISDEESEQATEMLVHNAQNLMQSVKETVREAEAASIKIRTDAGFTLRWVRKTPWYQ [VCL]”: in data set [1], the “solubility change mitosis (log2)” value is -0.0931. Besides, the melting temperature was found to be 56.4 °C in data set [2] (cell cycle stage: G1/S) and 55.4 °C in data set [2] (cell cycle stage: mitosis). Besides, the “solubility in G1/S (log2)” value in data set [3] was found to be 0.182. Further, the thermal stability score in data set [4] (setting [5]) is -1.64; in data set [4] (cell cycle stage: mitosis) it was -1.78.
Consider “MPVWGGGNKCGACGRTVYHAEEVQCDGRSFHRCCFLCMVCRKNLDSTTVAIHDEEIYCKSCYGKKYGPKGYGYGQGAGTLNMDRGERLGIKPESVQPHRPTTNPNTSKFAQKYGGAEKCSRCGDSVYAAEKIIGAGKPWHKNCFRCAKCGKSLESTTLTEKEGEIYCKGCYAKNFGPKGFGYGQGAGALVHAQ [CSRP2]”, for which the “solubility change mitosis (log2)” value in data set [1] was -0.0558. Moreover, the melting temperature in data set [2] (cell cycle stage: G1/S) stood at 59.4 °C; in data set [2] (cell cycle stage: mitosis), 54.6 °C. Further, the “solubility in G1/S (log2)” value in data set [3] is -0.179. Besides, the thermal stability score in data set [4] (setting [5]) was 1.39; in data set [4] (cell cycle stage: mitosis) it was -3.46.
For “MPYQYPALTPEQKKELSDIAHRIVAPGKGILAADESTGSIAKRLQSIGTENTEENRRFYRQLLLTADDRVNPCIGGVILFHETLYQKADDGRPFPQVIKSKGGVVGIKVDKGVVPLAGTNGETTTQGLDGLSERCAQYKKDGADFAKWRCVLKIGEHTPSALAIMENANVLARYASICQQNGIVPIVEPEILPDGDHDLKRCQYVTEKVLAAVYKALSDHHIYLEGTLLKPNMVTPGHACTQKFSHEEIAMATVTALRRTVPPAVTGITFLSGGQSEEEASINLNAINKCPLLKPWALTFSYGRALQASALKAWGGKKENLKAAQEEYVKRALANSLACQGKYTPSGQAGAAASESLFVSNHAY [ALDOA]”, the “solubility change mitosis (log2)” value in data set [1] was -0.0218. The melting temperature turned out to be 58.2 °C in data set [2] (cell cycle stage: G1/S) and 58.5 °C in data set [2] (cell cycle stage: mitosis). The “solubility in G1/S (log2)” value in data set [3] is 0.345. The values for the thermal stability score in data set [4] (setting [5]) and in data set [4] (cell cycle stage: mitosis) were -1.95 and -2.35, respectively.
